Reference: patent publication US20250346679A1 (INVOX PHARMA, published 2025)
Residue numbers refer to the chain shown, from its start. Each block holds one binder with its values, some of them ahead of it.

Experiments:
[1] = molecular target: human CD137, cell-surface (human, UniProt Q07011 24-255); experiment: cell-based or functional assay
[2] = molecular target: human PD-L1, cell-surface (human, UniProt Q9NZQ7 19-290); experiment: cell-based or functional assay
[3] = molecular target: T1, cynomolgus CD137, cell-surface (cynomolgus, UniProt Q07011 24-255 (human entry)); experiment: cell-based or functional assay
T1 chain: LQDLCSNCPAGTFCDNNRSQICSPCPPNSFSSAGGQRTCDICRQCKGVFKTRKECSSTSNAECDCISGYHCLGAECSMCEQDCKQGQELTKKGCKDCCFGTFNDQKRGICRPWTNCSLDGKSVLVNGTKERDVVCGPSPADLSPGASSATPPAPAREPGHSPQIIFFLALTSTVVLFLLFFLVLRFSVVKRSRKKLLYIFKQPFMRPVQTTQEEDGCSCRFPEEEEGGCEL

[4] = molecular target: T2, biotinylated hPD-L1-Avi-His (Acro Biosystems, PD1-H82E5) (human, UniProt Q9NZQ7 19-238, biotinylated); experiment: SPR, mAb^2 captured on Protein A chip, antigen in flow
T2 construct: bought; also called Human PD-L1-His; not shown: Avi and His tags of the bought product
Description: (§1) Briefly, the anti-human CD137/PD-L1 mAb², diluted in HBS-EP buffer (GE Healthcare, BR100188) at 2 μg/ml, were injected individually on flows cell 2, 3 and 4 of a Protein A chip (GE Healthcare, 29127556) at 30 μl/min to achieve a final response of approximately 110 RU. Two different recombinant human PD-L1 antigens were used i.e. hPD-L1-His-Avi (see Example 1.3 for antigen details) and biotinylated hPD-L1-Avi-His (Acrobiosystems, PD-1-H82E5). Human and cynomolgus PD-L1-His (Acrobiosystems, PD-1-C52H4) antigens, diluted in HBS-EP buffer, were injected on flow cell 1, 2, 3 or 4 as appropriate at a concentration range of 81 nM to 0.037 nM with 3-fold dilutions for 4 min at 75 μl/min and then allowed to dissociate in buffer for 10 min. Regeneration was achieved by injecting 10 mM glycine-HCL pH1.5 (GE Healthcare, Human Antibody Capture Kit, BR00356) for 30 sec at a rate of 30 μl/min. Subtracted data (flow cell 2−flow cell 1, flow cell 3−flow cell 1, or flow cell 4−flow cell 1) were analysed using BIAevaluation 3.2 Software (GE Healthcare) to identify binding using the model 1:1 binding with mass transfer, with refractive index (RI) constant 0.

[5] = molecular target: T3, cPD-L1-His (Acro Biosystems, PD1-C52H4) (cynomolgus, UniProt Q9NZQ7 19-238 (human entry)); experiment: as above
T3 construct: bought; also called Cyno PD-L1-His; Cynomolgus PD-L1-His; not shown: His tag of the bought product
Description: as §1

[6] = molecular target: T4, hCD137-mFc-Avi (human; mouse, UniProt Q07011 24-186, biotin on the Avi sequence where the biotinylated form was used); experiment: SPR, mAb^2 captured by anti-human Fab, antigen in flow
T4 construct: also called human CD137-mFc-Avi; dimeric human CD137; not shown: mouse IgG2a Fc domain (mIgG2a Fc)
Description: (§2) The binding of the anti-human CD137/PD-L1 mAb² to recombinant dimeric human and cynomolgus CD137 antigens was also measured by SPR using a Biacore T200 processing unit (GE Healthcare).
(§3) Briefly, 20 μg/ml anti-human Fab antibody (GE Healthcare, Human Fab Capture kit 28958325) was coated on flow cells 1, 2, 3 and 4 of a Biacore sensor S chip CM5 (GE Healthcare, BR100530) achieving a final response of approximately 5000 RU. […] The recombinant dimeric antigens, human CD137-mFc-Avi or cynomolgus CD137-mFc-Avi (see Example 1.1 for antigen details) diluted in HBS-EP buffer, were injected on flow cell 1, 2, 3 or 4 as appropriate at a concentration range of 81 nM to 0.037 nM with 3-fold dilutions for 4 minutes at 70 μl/min and then allowed to dissociate in buffer for 10 minutes. Regeneration was achieved by injecting 10 mM glycine pH 2.1 (GE Healthcare, Human Fab Capture kit 28958325) for 60 seconds at a rate of 30 μl/min. Data analysis was performed as described in Example 9.1.

[7] = molecular target: T5, cCD137-mFc-Avi (cynomolgus; mouse); experiment: as above
T5 construct: also called cynomolgus CD137-mFc-Avi; Cyno CD137-mFc-Avi; not shown: mouse IgG2a Fc domain (mIgG2a Fc)
T5 chain: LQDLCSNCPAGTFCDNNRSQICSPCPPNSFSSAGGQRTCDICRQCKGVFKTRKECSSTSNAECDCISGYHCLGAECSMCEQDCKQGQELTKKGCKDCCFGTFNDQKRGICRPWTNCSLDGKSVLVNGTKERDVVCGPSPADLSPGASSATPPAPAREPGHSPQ
Description: as §2, §3

T2 sequence (Q9NZQ7 19-238): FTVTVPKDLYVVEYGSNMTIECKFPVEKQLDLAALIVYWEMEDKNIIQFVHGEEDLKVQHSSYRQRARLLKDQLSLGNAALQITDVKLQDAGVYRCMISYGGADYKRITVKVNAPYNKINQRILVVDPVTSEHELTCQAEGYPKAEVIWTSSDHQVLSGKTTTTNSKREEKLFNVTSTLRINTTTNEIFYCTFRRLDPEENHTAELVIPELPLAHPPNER
T4 sequence (Q07011 24-186): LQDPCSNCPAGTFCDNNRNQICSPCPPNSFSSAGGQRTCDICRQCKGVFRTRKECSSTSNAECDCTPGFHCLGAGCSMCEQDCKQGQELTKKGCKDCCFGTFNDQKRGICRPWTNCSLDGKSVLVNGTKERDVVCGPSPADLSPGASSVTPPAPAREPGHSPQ
T3 sequence (Q9NZQ7 other isoform, or with tags, fused parts or gaps): as the sequence (Q9NZQ7 19-238) above, with A33T, A34S, S62N, R68Q, Q82R, F173L, T185A, T192I, H215L counted along it
Chain of human PD-L1, cell-surface (Q9NZQ7 19-290): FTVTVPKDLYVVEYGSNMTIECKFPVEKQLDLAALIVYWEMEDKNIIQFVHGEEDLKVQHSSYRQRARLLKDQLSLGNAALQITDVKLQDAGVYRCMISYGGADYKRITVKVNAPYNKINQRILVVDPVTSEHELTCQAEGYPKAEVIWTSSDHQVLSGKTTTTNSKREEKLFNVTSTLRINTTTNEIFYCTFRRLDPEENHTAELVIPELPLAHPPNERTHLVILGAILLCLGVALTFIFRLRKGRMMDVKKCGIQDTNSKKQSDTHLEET

EC50 (nM), hIL-2 release, CD8+ T cells, donor 171115A, HEK.hPD-L1 XL [1]: 0.27 nM
EC50 (nM), hIL-2 release, CD8+ T cells, donor 171115A, MDA-MB-231 XL [1]: 0.02 nM
EC50 (nM), hIL-2 release, CD8+ T cells, donor 171115B, HEK.hPD-L1 XL [1]: 0.19 nM
EC50 (nM), hIL-2 release, CD8+ T cells, donor 171115B, MDA-MB-231 XL [1]: 0.02 nM
EC50 (nM), IFN-γ release, human MLR [2]: 0.03 nM
Emax (pg/ml), IFN-γ release, human MLR [2]: 2650 pg/mL
EC50 (nM) (crosslinked), mIL-2 release, DO11.10.cCD137 with HEK.cyPD-L1 [3]: 0.08 nM
Emax (pg/ml) (crosslinked), mIL-2 release, DO11.10.cCD137 with HEK.cyPD-L1 [3]: 10500 pg/mL
Kd [4]: 0.5 nM
Kd [5]: 0.59 nM
Kd [6]: 1.5 nM
Kd [7]: 1 nM
B1: FS22-172-003-AA/E05v2 (bispecific antibody, human IgG1, kappa, L234A L235A)
heavy: EVQLVQSGAEVKRPGASVKVSCKASGYTFTSYGISWVRQAPGQGLEWMGWISAYSGGTNYAQKLQGRVTMTTDTSTSTAYMELRSLRSDDTAVYYCARDLFPTIFGVSYYYYWGQGTLVTVSSASTKGPSVFPLAPSSKSTSGGTAALGCLVKDYFPEPVTVSWNSGALTSGVHTFPAVLQSSGLYSLSSVVTVPSSSLGTQTYICNVNHKPSNTKVDKKVEPKSCDKTHTCPPCPAPEAAGGPSVFLFPPKPKDTLMISRTPEVTCVVVDVSHEDPEVKFNWYVDGVEVHNAKTKPREEQYNSTYRVVSVLTVLHQDWLNGKEYKCKVSNKALPAPIEKTISKAKGQPREPQVYTLPPSRDELPYIIPPYNQVSLTCLVKGFYPSDIAVEWESNGQPENNYKTTPPVLDSDGSFFLYSKLTVGADRWLEGNVFSCSVMHEALHNHYTQKSLSLSPG
light: DIQMTQSPSTLSASVGDRVTITCRASQSISGRLAWYQQKPGKAPNLLIYEASNLESGVPSRFSGSGSGTEFTLTISSLQPEDFATYYCQQSYSTPRVTFGQGTKVEIKRTVAAPSVFIFPPSDEQLKSGTASVVCLLNNFYPREAKVQWKVDNALQSGNSQESVTEQDSKDSTYSLSSTLTLSKADYEKHKVYACEVTHQGLSSPVTKSFNRGEC

EC50 (nM), hIL-2 release, CD8+ T cells, donor 171115A, HEK.hPD-L1 XL [1]: 0.21 nM
EC50 (nM), hIL-2 release, CD8+ T cells, donor 171115A, MDA-MB-231 XL [1]: 0.02 nM
EC50 (nM), hIL-2 release, CD8+ T cells, donor 171115B, HEK.hPD-L1 XL [1]: 0.22 nM
EC50 (nM), hIL-2 release, CD8+ T cells, donor 171115B, MDA-MB-231 XL [1]: 0.01 nM
EC50 (nM) (crosslinked), mIL-2 release, DO11.10.cCD137 with HEK.cyPD-L1 [3]: 0.06 nM
Emax (pg/ml) (crosslinked), mIL-2 release, DO11.10.cCD137 with HEK.cyPD-L1 [3]: 11200 pg/mL
Kd [4]: 0.49 nM
Kd [5]: 0.53 nM
Kd [6]: 2.2 nM
Kd [7]: 1.8 nM
B2: FS22-172-003-AA/G12v2 (bispecific antibody, human IgG1, kappa, L234A L235A)
heavy: B1 heavy
light: DIQMTQSPSTLSASVGDRVTITCRASQSISGRLAWYQQKPGKAPNLLIYEASNLESGVPSRFSGSGSGTEFTLTISSLQPEDFATYYCQQSYSWPRTFGQGTKVEIKRTVAAPSVFIFPPSDEQLKSGTASVVCLLNNFYPREAKVQWKVDNALQSGNSQESVTEQDSKDSTYSLSSTLTLSKADYEKHKVYACEVTHQGLSSPVTKSFNRGEC

EC50 (nM), hIL-2 release, CD8+ T cells, donor 171115A, HEK.hPD-L1 XL [1]: 0.16 nM
EC50 (nM), hIL-2 release, CD8+ T cells, donor 171115A, MDA-MB-231 XL [1]: 0.01 nM
EC50 (nM), hIL-2 release, CD8+ T cells, donor 171115B, HEK.hPD-L1 XL [1]: 0.11 nM
EC50 (nM), hIL-2 release, CD8+ T cells, donor 171115B, MDA-MB-231 XL [1]: 0.02 nM
EC50 (nM), IFN-γ release, human MLR [2]: 0.02 nM
Emax (pg/ml), IFN-γ release, human MLR [2]: 2800 pg/mL
EC50 (nM) (crosslinked), mIL-2 release, DO11.10.cCD137 with HEK.cyPD-L1 [3]: 0.06 nM
Emax (pg/ml) (crosslinked), mIL-2 release, DO11.10.cCD137 with HEK.cyPD-L1 [3]: 8060 pg/mL
Kd [4]: 0.47 nM
Kd [5]: 0.58 nM
Kd [6]: 2.8 nM
Kd [7]: 1.1 nM
B3: FS22-053-008-AA/E05v2 (bispecific antibody, human IgG1, kappa, L234A L235A)
heavy: B1 heavy with P365N, Y366P, I367P, I368Y, P369L, P370F, Y371S, G424D, A425Y, D426W
light: B1 light
